Tested on: peptide library, one residue held at a place counted from the Y acceptor
Test: relative phosphorylation of the sub-library (ratio to the mean residue at this position); higher = residue favoured
Procedure, shortened: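 Every value reflects phosphorylation relative to the mean randomized residue. The sum of the 18 randomized residues, or 16 in the Ser/Thr-free library, served to normalize intensities at each position, which were then multiplied by that number. Intensities came from phosphorimaging with ImageQuant of biotinylated Tyr-centred peptides captured on streptavidin membranes after 90 min with purified recombinant kinases and 50 μM ATP plus γ-32P-ATP.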

Sequence of CSF1R, construct: aa539-end, human (P07333 539-972, looked up): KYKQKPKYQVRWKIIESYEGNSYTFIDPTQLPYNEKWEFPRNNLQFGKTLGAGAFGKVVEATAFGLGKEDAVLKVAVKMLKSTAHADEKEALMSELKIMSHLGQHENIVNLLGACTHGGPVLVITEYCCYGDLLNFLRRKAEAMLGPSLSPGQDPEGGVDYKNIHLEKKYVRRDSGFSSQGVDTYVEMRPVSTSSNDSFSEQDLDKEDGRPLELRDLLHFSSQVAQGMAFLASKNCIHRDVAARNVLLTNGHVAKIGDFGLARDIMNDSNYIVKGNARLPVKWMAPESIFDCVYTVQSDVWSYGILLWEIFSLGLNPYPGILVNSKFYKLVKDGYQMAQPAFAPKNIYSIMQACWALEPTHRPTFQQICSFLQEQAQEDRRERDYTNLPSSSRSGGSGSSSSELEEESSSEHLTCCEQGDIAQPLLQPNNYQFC
Sequence of FGFR1, construct: aa456-765, human (P11362 456-765, looked up): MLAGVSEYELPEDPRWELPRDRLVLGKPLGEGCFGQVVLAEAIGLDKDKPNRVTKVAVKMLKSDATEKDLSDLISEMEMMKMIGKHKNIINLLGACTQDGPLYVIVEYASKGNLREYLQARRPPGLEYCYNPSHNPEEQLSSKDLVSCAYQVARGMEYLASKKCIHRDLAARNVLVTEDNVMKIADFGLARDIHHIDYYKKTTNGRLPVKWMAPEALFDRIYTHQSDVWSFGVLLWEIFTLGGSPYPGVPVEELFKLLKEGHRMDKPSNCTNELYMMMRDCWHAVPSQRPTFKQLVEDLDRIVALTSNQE
Sequence of BMPR2, construct: aa172-end, human (Q13873 172-1038, looked up): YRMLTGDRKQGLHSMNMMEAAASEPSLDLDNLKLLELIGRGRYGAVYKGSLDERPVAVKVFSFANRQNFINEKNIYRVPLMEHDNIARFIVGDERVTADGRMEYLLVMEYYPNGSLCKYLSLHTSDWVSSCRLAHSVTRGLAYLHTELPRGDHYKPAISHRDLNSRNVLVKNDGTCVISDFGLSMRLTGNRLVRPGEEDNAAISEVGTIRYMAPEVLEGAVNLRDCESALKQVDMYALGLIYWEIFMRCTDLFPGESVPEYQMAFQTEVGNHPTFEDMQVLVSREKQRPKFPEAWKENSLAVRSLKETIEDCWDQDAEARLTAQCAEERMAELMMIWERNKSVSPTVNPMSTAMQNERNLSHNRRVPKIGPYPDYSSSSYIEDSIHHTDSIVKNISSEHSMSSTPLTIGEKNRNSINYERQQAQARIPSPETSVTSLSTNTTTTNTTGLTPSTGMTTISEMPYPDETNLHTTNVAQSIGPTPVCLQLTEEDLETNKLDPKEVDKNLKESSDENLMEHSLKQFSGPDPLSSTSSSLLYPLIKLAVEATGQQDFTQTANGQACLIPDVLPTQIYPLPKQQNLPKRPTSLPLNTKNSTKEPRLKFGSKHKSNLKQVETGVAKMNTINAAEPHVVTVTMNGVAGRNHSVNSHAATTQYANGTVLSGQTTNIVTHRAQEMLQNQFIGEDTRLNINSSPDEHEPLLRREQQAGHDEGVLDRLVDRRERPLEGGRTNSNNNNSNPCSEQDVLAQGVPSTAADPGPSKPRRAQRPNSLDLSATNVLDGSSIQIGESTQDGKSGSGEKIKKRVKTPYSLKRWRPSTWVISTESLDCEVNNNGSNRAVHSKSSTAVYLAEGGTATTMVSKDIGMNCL

CSF1R, construct: aa539-end, human (from UniProt P07333)
relative phosphorylation
Conditions | at +1 | at +2 | at +3 | at +4 | at +5 | at -1 | at -2 | at -3 | at -4 | at -5
A fixed | 0.891 | 0.881 | 0.64 | 0.958 | 0.873 | 0.884 | 1.16 | 1.02 | 1.07 | 1.09
D fixed | 0.331 | 0.636 | 0.32 | 0.718 | 0.844 | 1.13 | 1.11 | 1.36 | 1.3 | 1.14
E fixed | 0.638 | 0.924 | 0.246 | 0.784 | 0.832 | 1.06 | 1.17 | 1.77 | 1.47 | 1.06
F fixed | 1.89 | 1.09 | 1.97 | 1.27 | 0.977 | 1.04 | 0.617 | 0.741 | 0.821 | 0.963
G fixed | 0.444 | 0.508 | 0.633 | 1.15 | 1.43 | 0.656 | 1.22 | 1.27 | 1.23 | 1.2
H fixed | 1.74 | 0.993 | 0.863 | 1.15 | 1.05 | 1.77 | 0.992 | 0.973 | 0.923 | 1
I fixed | 1.67 | 1.04 | 2.14 | 0.891 | 0.781 | 1.62 | 0.834 | 0.63 | 0.846 | 0.783
K fixed | 0.674 | 0.951 | 0.632 | 1.01 | 1.05 | 0.535 | 0.751 | 0.731 | 0.878 | 0.98
L fixed | 1.3 | 1.21 | 1.93 | 0.874 | 0.689 | 1.23 | 0.952 | 0.763 | 0.858 | 0.817
M fixed | 1.2 | 1.05 | 1.67 | 1.06 | 0.927 | 0.91 | 0.757 | 0.755 | 0.863 | 0.909
N fixed | 0.512 | 0.965 | 0.523 | 0.975 | 1.08 | 1.15 | 1.16 | 1.21 | 0.936 | 1.12
P fixed | 0.565 | 0.847 | 1.13 | 0.922 | 1.34 | 1.05 | 1.6 | 1.17 | 1.34 | 1.29
Q fixed | 0.973 | 0.989 | 0.519 | 0.965 | 0.931 | 0.919 | 1.03 | 1.07 | 0.921 | 0.93
R fixed | 0.745 | 1.31 | 0.929 | 1.36 | 1.2 | 0.474 | 0.844 | 0.786 | 0.782 | 0.871
S fixed | 0.721 | 0.893 | 0.604 | 1.02 | 1.24 | 0.687 | 1.2 | 1.14 | 0.97 | 1.03
T fixed | 0.938 | 1.11 | 0.856 | 1.04 | 1.07 | 1.08 | 1.08 | 1.12 | 0.899 | 1.01
V fixed | 1.56 | 1.11 | 1.47 | 0.851 | 0.756 | 1.12 | 0.939 | 0.748 | 0.866 | 0.859
W fixed | 1.2 | 1.49 | 0.91 | 1.01 | 0.928 | 0.678 | 0.575 | 0.745 | 1.02 | 0.943
pThr fixed | 0.739 | 1.17 | 0.232 | 0.432 | 0.567 | 1.02 | 0.996 | 1.2 | 1.12 | 0.956
pTyr fixed | 1.61 | 1.25 | 0.341 | 0.698 | 0.773 | 1.87 | 1.01 | 1.11 | 1.16 | 1

FGFR1, construct: aa456-765, human (from UniProt P11362)
relative phosphorylation
Conditions | at +1 | at +2 | at +3 | at +4 | at +5 | at -1 | at -2 | at -3 | at -4 | at -5
A fixed | 1.01 | 0.593 | 0.546 | 0.853 | 0.912 | 0.836 | 0.925 | 0.939 | 1.11 | 1.05
D fixed | 0.332 | 0.728 | 0.463 | 0.791 | 1.17 | 2.09 | 1.05 | 1.22 | 1.02 | 1.05
E fixed | 0.68 | 1.06 | 0.407 | 0.769 | 1.06 | 1.29 | 1.17 | 1.23 | 1.09 | 0.859
F fixed | 1.81 | 1.68 | 1.57 | 1.12 | 0.897 | 1.06 | 0.673 | 0.814 | 0.905 | 0.897
G fixed | 0.332 | 0.406 | 0.514 | 1.27 | 1.22 | 0.557 | 1.19 | 1.08 | 1.22 | 1.12
H fixed | 1.62 | 0.924 | 0.968 | 1.06 | 0.867 | 1.17 | 1.17 | 1.03 | 1.05 | 1.05
I fixed | 1.66 | 1.14 | 2.43 | 1.13 | 0.744 | 1.3 | 0.907 | 0.816 | 0.823 | 0.921
K fixed | 0.379 | 0.581 | 0.302 | 0.866 | 0.903 | 0.461 | 1.03 | 1.01 | 1.02 | 1.12
L fixed | 0.938 | 1.35 | 1.79 | 1.13 | 0.737 | 0.921 | 0.829 | 0.69 | 0.769 | 0.891
M fixed | 1.07 | 1.07 | 1.65 | 0.981 | 0.822 | 0.758 | 0.826 | 0.917 | 0.803 | 0.95
N fixed | 0.428 | 0.954 | 0.415 | 0.758 | 0.999 | 1.35 | 1.25 | 1.34 | 1.02 | 1.24
P fixed | 1.13 | 0.702 | 0.621 | 1.3 | 1.72 | 0.954 | 0.919 | 0.962 | 1.22 | 0.954
Q fixed | 0.794 | 0.963 | 0.796 | 0.955 | 0.999 | 1.09 | 1.24 | 1.05 | 1.2 | 1.19
R fixed | 0.494 | 0.669 | 0.494 | 0.914 | 1.05 | 0.354 | 0.969 | 0.95 | 1.04 | 1.29
S fixed | 0.888 | 0.818 | 0.6 | 1.01 | 1.14 | 0.678 | 1.2 | 1.19 | 0.918 | 0.988
T fixed | 0.98 | 0.762 | 0.774 | 0.836 | 1.02 | 0.77 | 0.995 | 0.916 | 0.768 | 0.741
V fixed | 1.67 | 1.09 | 1.78 | 1 | 0.84 | 1.21 | 0.9 | 0.84 | 0.789 | 0.753
W fixed | 1.78 | 2.51 | 1.87 | 1.26 | 0.908 | 1.15 | 0.748 | 1.01 | 1.23 | 0.949
pThr fixed | 0.496 | 0.942 | 0.298 | 0.559 | 1.03 | 0.884 | 0.846 | 0.938 | 0.771 | 0.696
pTyr fixed | 2.43 | 2.39 | 0.408 | 0.758 | 0.987 | 2.02 | 1.13 | 1.06 | 1.07 | 0.764

BMPR2, construct: aa172-end, human (from UniProt Q13873)
relative phosphorylation
Conditions | at +1 | at +2 | at +3 | at +4 | at +5 | at -1 | at -2 | at -3 | at -4 | at -5
A fixed | 0.886 | 0.936 | 0.914 | 0.977 | 0.907 | 0.88 | 0.948 | 0.948 | 0.967 | 0.964
D fixed | 0.835 | 1.34 | 1.18 | 1.05 | 1.04 | 2.25 | 1.25 | 1.33 | 1.31 | 1.29
E fixed | 0.785 | 1.44 | 1.13 | 1.07 | 1.04 | 1.44 | 1.08 | 1.27 | 1.16 | 1.1
F fixed | 0.959 | 0.852 | 0.953 | 0.96 | 0.947 | 0.755 | 1.09 | 0.989 | 1.13 | 1.06
G fixed | 0.927 | 0.923 | 1.03 | 1.04 | 1.07 | 1.46 | 1.03 | 1.02 | 0.965 | 0.987
H fixed | 1.03 | 0.986 | 0.995 | 1.08 | 1.06 | 0.796 | 1.09 | 1.1 | 1.14 | 1.05
I fixed | 1.02 | 0.969 | 1.02 | 1 | 0.961 | 0.767 | 0.754 | 0.855 | 0.861 | 0.928
K fixed | 1.11 | 0.898 | 0.966 | 1.04 | 1.06 | 0.708 | 1.06 | 0.872 | 0.875 | 0.942
L fixed | 1.09 | 0.864 | 0.827 | 0.834 | 0.842 | 0.832 | 1.05 | 0.852 | 0.896 | 0.863
M fixed | 1.06 | 0.913 | 0.906 | 0.917 | 0.874 | 0.841 | 0.97 | 0.881 | 0.901 | 0.892
N fixed | 0.897 | 1.08 | 1 | 1 | 0.99 | 1.08 | 1 | 1.1 | 0.933 | 1.05
P fixed | 1.23 | 0.981 | 1.05 | 1.07 | 1.15 | 0.724 | 0.825 | 0.86 | 0.905 | 0.928
Q fixed | 0.917 | 0.994 | 0.979 | 0.957 | 0.972 | 0.92 | 1.01 | 1.01 | 0.987 | 1.03
R fixed | 1.2 | 0.99 | 1.14 | 1.1 | 1.23 | 0.92 | 1.05 | 1.04 | 0.92 | 0.975
V fixed | 1.26 | 1.03 | 1.04 | 0.972 | 0.979 | 0.781 | 0.732 | 0.918 | 0.911 | 0.906
W fixed | 0.808 | 0.789 | 0.875 | 0.919 | 0.88 | 0.843 | 1.06 | 0.963 | 1.14 | 1.03
pThr fixed | 2.07 | 1.7 | 1.39 | 1.4 | 1.12 | 3.29 | 1.35 | 1.22 | 1.22 | 1.27
pTyr fixed | 1.48 | 2.01 | 1.17 | 1.27 | 1.05 | 2.54 | 1.64 | 2.3 | 2 | 1.47

Reference: the supplement of paper PMC11136658
